Measurements from paper PMC6764022 (ACS Nano, 2019).
Where no end group is shown, it is not given here. [ ]: non-standard residue; d: D form. Lys(N3) = [N-]=[N+]=NCCCC[C@H](N)C(=O)O

T1: B3: DNA origami B decorated with three β-CC-Di-KE (azidonorleucine (Z) at the N-terminus, joined to oligonucleotide tag β, which is hybridised to a handle of DNA origami B)
T1 chain: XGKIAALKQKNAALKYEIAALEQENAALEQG

T2: B2: DNA origami B decorated with two β-CC-Di-KE (azidonorleucine (Z) at the N-terminus, joined to oligonucleotide tag β, which is hybridised to a handle of DNA origami B)
T2 chain: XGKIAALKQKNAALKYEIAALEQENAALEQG

B1: A3: DNA origami A decorated with three CC-Di-EK-α (other)
chain: GEIAALEQENAALEQKIAALKWKNAALKQG[Lys(N3)]-NH2
modifications: also: tag α hybridised to handle of DNA origami A, three copies per origami
B2: A2: DNA origami A decorated with two CC-Di-EK-α (other)
chain: GEIAALEQENAALEQKIAALKWKNAALKQG[Lys(N3)]-NH2
modifications: not fully specified; also: tag α hybridised to handle of DNA origami A, two copies per origami

Assays:
Assay in all cases: counting of free and bound DNA origami nanostructures in electron micrographs (TEM); peptides displayed on DNA origamis A and B through oligonucleotide tags; gel-purified An and Bn mixed, total monomer concentrations 0.25-2.4 nM; background of random coincidences subtracted; Kd from the slope of a linear fit through the origin; additional systematic error of approximately 20%
[1] = target: T1, B3: DNA origami B decorated with three …; conditions: both partners purified
[2] = target: the molecule itself
[3] = target: T2, B2: DNA origami B decorated with two …; conditions: both partners purified

| Binder | Kd [1] [nM] | Kd [2] [nM] | Kd [3] [nM] |
| --- | --- | --- | --- |
| B1 | 0.7 ± 0.1 | 24 ± 4 | – |
| B2 | – | – | 25 ± 3 |
